Measured values taken from the supplement of paper PMC9170038.

Test system: MS2 coat protein
Assay: apparent KD of MS2 coat protein; designed switch direction (-1 OFF switch, 1 ON switch): -1; higher = weaker reporter binding
In short: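 The reported apparent KD is a per-design median over clusters, from curve fits of normalised cluster fluorescence. Protein titrations used SNAP-549-labelled MS2 coat protein, doubled from 0.7 or 1.5 nM to 3 µM, in Tris-HCl pH 7.5 buffer with KCl, MgCl2, BSA, DTT, tRNA and Tween-20, with no input, 200 uM small-molecule ligand, or an oligonucleotide input. The RNA switches were transcribed on Illumina chips by stalled E. coli RNA polymerase.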

[1] = Eterna round: R95, input ligand: microRNA oligo, concentration not stated
[2] = Eterna round: R95, input ligand: FMN 200 uM
[3] = Eterna round: R95, input ligand: none
[4] = input ligand: microRNA oligo, concentration not stated

Sequence | apparent KD of MS2 coat protein (input ligand: FMN 200 uM) | apparent KD of MS2 coat protein (input ligand: none) | apparent KD of MS2 coat protein [1] | apparent KD of MS2 coat protein [2] | apparent KD of MS2 coat protein [3] | apparent KD of MS2 coat protein [4]
GUUAACGAUGAGGAUAUAUGAUAUCAAAGCAUCAUAGAAGGCAUCACAUGAGGAUCACCCAUGUGAUCUUCUUU [jl-ex6-4.10 ViennaUCT mod] (Eterna round: R97, puzzle: Exclusion 6) | 83.6 nM | 15.2 nM |  |  |  | 
UGCAUCUGAGGAUAUCACAUGUGGAACAUGAGGAUCACCCAUGUGAUCCACAUGCCGUUGUGAGAAGGCAGUAAAA [Isteon] (puzzle: Exclusion 5) |  |  | 268 nM |  |  | 
UUCUUACAUGAGGAUCACCCAUGUCAGGAUAUCUCCUCACUGCGCUUGCGCAGUGAAUAGAGAAGGGACAGGCU [JL ViennaUCT Aner mod 2] (puzzle: Exclusion 1) |  |  | 37.3 nM |  |  | 
AAAUAACAAGCGAGAUCCUACAUGAGGAUCACCCAUGUGCUCGUCUUAUAAAGUACUAUCACGAAAGUGAUAGUACA [Sensor 3, v1 - 13] (puzzle: Sensor v3, turn-off variant 1) |  |  | 50.8 nM | 16.4 nM | 16.3 nM | 
UUAGCGUAAGUAAGGAUAUGCUGGUCGAAAGAUCAGCAGAAGGUACAUGAGGAUCACCCAUGUGGAUUCGUUAU [Mod of JL 11 - Jieux - Brourd's mod of Exclusion 4] (Eterna round: R97, puzzle: Brourd's mod of Exclusion 4) | 73 nM | 27.5 nM |  |  |  | 
AGCCACAGAGGAUAUACAUACAUCCAGUAGUUAAGAAUACAACAUGAGGAUCACCCAUGUAGAAGGCUGUGGCA [Omei Ex2 BD B9] (Eterna round: R97, puzzle: Exclusion 2) | 348 nM | 103 nM |  |  |  | 
AACUCACAUGAGGAUCACCCAUGUGAGGAUAUGUGAGUGUGUAUGUUAUUAUAUAUUUAUAGAAGGCGCGUGAU [JR_Exc1_Sub029] (Eterna round: R97, puzzle: Exclusion 1) | 24.5 nM | 23.1 nM |  |  |  | 
GAUGUGGGUUUUCAGAGUAACAUGAGGAUCACCCAUGUAGAAGUUGAAGGUAUCAAGCGAAUGGCUCGUCAAAUGUG [JR_SV3TOV1_Sub049] (puzzle: Sensor v3, turn-off variant 1) |  |  | 182 nM | 229 nM | 287 nM | 
AGUACUAACACGAAAGUGUUAGUACAAUAAGCUUGUGACACAUGAGGAUCACCCAUGUCCUCAUAAGCUCGUCUUAU [salish99_TOv2_r3_046] (puzzle: Sensor v3, turn-off variant 2) |  |  | 656 nM | 23.9 nM | 25.6 nM | 
AAGGGUGCUUUCAGAACGACAUGAGGAUCACCCAUGUAGACUGAGGAUAUCUACUUCUAAGGACGGGAGAAGGUAGUGUAAUGC [Ex NG3 #67] (Eterna round: R96, puzzle: Exclusion NG 3) | 19.7 nM | 21.5 nM |  |  |  | 15.9 nM
GCUGGACGAGGAUAUGCAAUCGUGCUUCGGCACGUAAGGUCACAUGAGGAUCACCCAUGUAGAAGGUGUCCAGC [E2/4-B2] (Eterna round: R97, puzzle: Exclusion 2) | 31.1 nM | 20.5 nM |  |  |  | 
UAUUAGUAAGGAUAUGAGACGUAGGACUAAUGUCCUACGUCUCAGAAGGUACAUGAGGAUCACCCAUGUUUAUU [Mod of Fisker 8 - Jieux - Exclusion 4] (Eterna round: R97, puzzle: Exclusion 4) | 23.5 nM | 19.3 nM |  |  |  | 
AAUAUUAGAGGAUAUACAGUUUAUUACAUGAGGAUCACCCAUGUUCUUCAAUGUAUAUAAGUAGAAGGCUAAGGAA [EX-5 Malc#2] (puzzle: Exclusion 5) |  |  | 42.6 nM | 157 nM | 43.7 nM | 
UGAUCAGACCGAGGAUAUACAUGUAGGACCCACGUGAGUGGGUCCAGUACAUGAGGAUCACCCAUGUAGAAGGCGGUCUGAUCU [JL ENG2 1.89] (Eterna round: R96, puzzle: Exclusion NG 2) | 241 nM | 94.6 nM |  |  |  | 70.6 nM
AAGUACCGUCACGAAAGUGAUGGUACAACAAGCAAAUGUACAUGAGGAUCACCCAUGUCCUCGAUUGCUCGUCUUAU [Sensor 3 - 61] (puzzle: Sensor v3, turn-off variant 2) |  |  | 114 nM | 77.2 nM | 93.6 nM | 
GGAGGACGAGCAGGAUAUUUUCACAUGAGGAUCACCCAUGUGUACUCAGGGUAAUCCUCCGCCGAAGAGAAGGGUUCGGAAGAA [Socedi] (Eterna round: R96, puzzle: Exclusion NG 2) | 91 nM | 57.1 nM |  |  |  | 23 nM
CGAGCUGCUGUGAGGAUAUACCUAUGGAUACAUAGGUAGAAGGCACAUGAGGAUCACCCAUGUCCUGCAGCUCG [jl-bmx4-4.60 Eli mod] (Eterna round: R97, puzzle: Brourd's mod of Exclusion 4) | 232 nM | 44 nM |  |  |  | 
